{"source": "paper PMC3142182", "target": "HCV NS5A protein, genotype 1b (hepatitis C virus genotype 1b) (UniProt Q9WMX2)", "assay": "co-IP; detergent-solubilized lysates of HEK 293T cells expressing the proteins; immunoprecipitation with mAb against 1b5A, Western blot for NS5B; protocol of Qi et al. [29]; three independent experiments"}
{"substance": "HCV NS5B (RNA-dependent RNA polymerase), genotype 1b (Con1), full length (from UniProt Q9WMX2 2420-3010) (enzyme)", "values": [{"measurement": "fold more co-precipitated than 1bΔ21", "value": "> 2", "unit": "fold"}]}
